Experimental findings from patent US20210318312 are described below.

As a reminder, the Km is the concentration of substrate that gives half-maximal velocity. The kcat is the maximal rate divided by the concentration of active sites.

One data set deals with T1, DLAT K259 Lipoyl peptide.
T1 chain: EIETDKATIGWW

The target of a further data set is T2, H3 K9 Acetyl peptide.
T2 chain: KQTARKSTGGWW

A further data set concerns the target T3, H3 K9 Biotinyl peptide.
T3 chain: KQTARKSTGGWW

The target of data set [1] is purified porcine heart pyruvate dehydrogenase (Sigma-Aldrich, cat. #P7032).
The target of data set [2] is T4, lipoyl-modified DLAT peptide of the LC-MS deacylation assay.
T4 chain: EIETDKATIGWW

A further data set has as its target T5, H3 K9 Lipoyl peptide.
T5 chain: KQTARKSTGGWW

Data set [3] concerns the target T6, lipoyl-modified PDHX peptide.
T6 chain: EIETDKAVVTWW

A further data set has as its target T7, DLAT K259 Acetyl peptide.
T7 chain: EIETDKATIGW

B1: recombinant SIRT3 (Sigma, cat. #SRP0117-100UG) (protein)
chain: ISFSVGASSVVGSGGSSDKGKLSLQDVAELIRARACQRVVVMVGAGISTPSGIPDFRSPGSGLYSNLQQYDLPYPEAIFELPFFFHNPKPFFTLAKELYPGNYKPNVTHYFLRLLHDKGLLLRLYTQNIDGLERVSGIPASKLVEAHGTFASATCTVCQRPFPGEDIRADVMADRVPRCPVCTGVVKPDIVFFGEPLPQRFLLHVVDFPMADLLLILGTSLEVEPFASLTEAVRSSVPRLLINRDLVGPLAWHPRSRDVAQLGDVVHGVESLVELLGWTEEMRDLVQRETGKLDGPDK
As to B1, in the data set with DLAT K259 Lipoyl peptide, the “catalytic efficiency, fold lower than for DLAT acetyl” value is “this efficiency was 13-fold lower than for DLAT acetyl” and the “in vitro deacylation kinetics” value was “SIRT3 showed some enzymatic activity towards DLAT lipoyl”.

B2: recombinant SIRT4 (N-terminally truncated human Sirt4, 33-314 of SEQ ID NO: 2) (protein)
chain: VPASPPLDPEKVKELQRFITLSKRLLVMTGAGISTESGIPDYRSEKVGLYARTDRRPIQHGDFVRSAPIRQRYWARNFVGWPQFSSHQPNPAHWALSTWEKLGKLYWLVTQNVDALHTKAGSRRLTELHGCMDRVLCLDCGEQTPRGVLQERFQVLNPTWSAEAHGLAPDGDVFLSEEQVRSFQVPTCVQCGGHLKPDVVFFGDTVNPDKVDFVHKRVKEADSLLVVGSSLQVYSGYRFILTAWEKKLPIAILNIGPTRSDDLACLKLNSRCGELLPLIDPC
With B2, in the data set with H3 K9 Acetyl peptide, the Michaelis-Menten constant (Km) entry is “ND* (>2500)”; the “LC-MS-based deacylation assay, hydrolysis of the acyl-lysine modification” value was “SIRT4 was able to hydrolyze all three modifications”; the kcat/Km was 0.083 s^-1M^-1; the “relative amount of unmodified product generated using 5 µM SIRT4” value (“relative amount” below) is listed as 0.3% (acetyl-SEQ ID NO: 3). In the data set with H3 K9 Biotinyl peptide, the Km is 719 µM; the “LC-MS-based deacylation assay, hydrolysis of the acyl-lysine modification” value is “SIRT4 was able to hydrolyze all three modifications”; the “catalytic efficiency, fold (another experiment)” value is listed as “biotinyl (9-fold)”; the “catalytic efficiency, fold against acetylated H3K9” value was “biotinyl (SEQ ID NO: 4) (11-fold)”. Moreover, in the data set with H3 K9 Biotinyl peptide, the kcat came out at 0.0005 s⁻¹, the kcat/Km is 0.74 s^-1M^-1 and the “relative amount” value is given as 3% (biotinyl-SEQ ID NO: 4). For the same protein, the “PDH activity, immuno-capture colorimetric assay” value in data set [1] is on record as “only active SIRT4 was able to attenuate PDH activity”. Besides, in the data set with DLAT K259 Lipoyl peptide, the Km amounted to 239 µM; the “catalytic efficiency, fold against H3K9 lipoyl” value is 3.5-fold increased efficiency compared to H3K9 lipoyl; the “catalytic efficiency, fold against H3K9 lipoyl (another experiment)” value is reported as 3.3-fold increase in efficiency compared to H3K9 lipoyl; the “catalytic efficiency, fold against deacetylation of MCD” value is reported as “˜1270-fold more efficient at hydrolyzing the DLAT lipoamide”. In addition, in the data set with DLAT K259 Lipoyl peptide, the kcat came out at 0.0016 s⁻¹ and the kcat/Km is 7.65 s^-1M^-1. In data set [2], the “proportion of unmodified peptide generated following reaction” value is “increased to 33% for DLAT (SEQ ID NO: 11)”. Also, in the data set with H3 K9 Lipoyl peptide, the Km was determined as 814 µM; the “LC-MS-based deacylation assay, hydrolysis of the acyl-lysine modification” value is listed as “SIRT4 was able to hydrolyze all three modifications”; the “catalytic efficiency, fold (another experiment)” value is “lipoyl (28-fold)”; the “catalytic efficiency, fold against acetylated H3K9” value is given as “lipoyl (SEQ ID NO: 3 (30-fold)”. Besides, in the data set with H3 K9 Lipoyl peptide, the kcat turned out to be 0.0019 s⁻¹, the kcat/Km is 2.3 s^-1M^-1 and the “relative amount” value is reported as 11% (lipoyl-SEQ ID NO: 3). In data set [3], the “proportion of unmodified peptide generated following reaction” value was 42% for PDHX (SEQ ID NO: 13). In the data set with DLAT K259 Acetyl peptide, the Km result is recorded as “ND* (>2500)”; the “catalytic efficiency, fold lower than DLAT lipoyl” value was “this efficiency was still 38-fold lower than DLAT lipoyl”; the kcat was determined as 0.0011 s⁻¹; the kcat/Km is 0.2 s^-1M^-1. Besides, in the data set with MCD K471 Acetyl peptide, the Km result was “ND (>2500)” and the kcat/Km was found to be 0.0064 s^-1M^-1.

B3: recombinant SIRT4 H161Y catalytic mutant (protein)
chain: VPASPPLDPEKVKELQRFITLSKRLLVMTGAGISTESGIPDYRSEKVGLYARTDRRPIQHGDFVRSAPIRQRYWARNFVGWPQFSSHQPNPAHWALSTWEKLGKLYWLVTQNVDALHTKAGSRRLTELYGCMDRVLCLDCGEQTPRGVLQERFQVLNPTWSAEAHGLAPDGDVFLSEEQVRSFQVPTCVQCGGHLKPDVVFFGDTVNPDKVDFVHKRVKEADSLLVVGSSLQVYSGYRFILTAWEKKLPIAILNIGPTRSDDLACLKLNSRCGELLPLIDPC
B3: the LC-MS-based deacylation assay entry in the data set with H3 K9 Acetyl peptide, with H3 K9 Biotinyl peptide and in the data set with H3 K9 Lipoyl peptide was “observed no significant activity for any of these substrates” throughout. Moreover, the “PDH activity, immuno-capture colorimetric assay” value in data set [1] is “only active SIRT4 was able to attenuate PDH activity”.
